Experimental data from FireProtDB (doi:10.1016/0022-2836(92)90557-z).

B1: Ribonuclease, P00648 (parent)
chain: MMKMEGIALKKRLSWISVCLLVLVSAAGMLFSTAAKTETSSHKAHTEAQVINTFDGVADYLQTYHKLPDNYITKSEAQALGWVASKGNLADVAPGKSIGGDIFSNREGKLPGKSGRTWREADINYTSGFRNSDRILYSSDWLIYKTTDHYQTFTKIR

Variants of: B1
Details: Bacillus amyloliquefaciens; pH 6.3; 25 °C; Urea; Fluorescence; MES 1.00 M; NaCl 613 mM; reversible: yes; structure 1BNI; whole UniProt chain shown

Variant | ddG of mutation (higher = less stable) | denaturant midpoint (higher = more stable)
D55A D59A | 0.89 kcal/mol | 4.16 M
D59A | 0.34 kcal/mol | 4.42 M
R157A | 0.46 kcal/mol | 4.37 M
D55A R157A | 0.47 kcal/mol | 4.36 M
D55A D59A R157A | -0.11 kcal/mol | 4.63 M
D55A | 0.99 kcal/mol | 4.12 M
